Drawing on publication PMC7598476, this text covers stoichiometry N and Kd for two substances.

The target in assay [1] is trypsinized trimeric hMPV B2 F (human metapneumovirus (subgroup B2)). The assay is described as follows: SEC. On the technique in general: SEC sorts molecules by how far they enter the pores of the column.
The target in assay [2] is biotinylated monomeric hMPV B2 F protein (human metapneumovirus (subgroup B2)). The assay is described as follows: BLI. (In BLI a coated tip is dipped into the sample, and binding shifts an interference pattern.)

For the substance “trypsinized trimeric hMPV B2 F (natural protein)”, the stoichiometry N (as a rule, the number of molecules, sites or subunits per partner or assembly) in assay [1] came out at 3.

Consider 101F Fab, for which, in assay [2], the equilibrium dissociation constant (Kd) (usually the concentration at which binding is half-saturated) was determined as 430 nM.
